Numbering of substitutions follows the chain as printed.

T1: IL1RL1 (UniProt Q01638 19-328, limits assumed)
T1 construct: SPR analyte
T1 sequence (looked up): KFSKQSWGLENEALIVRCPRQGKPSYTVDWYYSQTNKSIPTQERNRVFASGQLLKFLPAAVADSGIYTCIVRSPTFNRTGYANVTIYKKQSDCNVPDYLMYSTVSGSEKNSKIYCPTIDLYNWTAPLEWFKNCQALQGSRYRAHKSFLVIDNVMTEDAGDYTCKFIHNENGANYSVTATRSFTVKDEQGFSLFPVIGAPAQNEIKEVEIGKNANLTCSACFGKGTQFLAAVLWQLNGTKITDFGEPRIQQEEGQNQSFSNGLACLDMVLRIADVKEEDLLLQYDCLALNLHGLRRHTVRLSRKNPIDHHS

T2: IL1RL1 over-expressed on Expi293 cells (UniProt Q01638 19-556, limits assumed)
T2 construct: whole, on cells; Target of the flow cytometry MFI ratio (over-expressing cells over parent cells); also called cytokine over-expressing Expi293 cells
T2 sequence (looked up): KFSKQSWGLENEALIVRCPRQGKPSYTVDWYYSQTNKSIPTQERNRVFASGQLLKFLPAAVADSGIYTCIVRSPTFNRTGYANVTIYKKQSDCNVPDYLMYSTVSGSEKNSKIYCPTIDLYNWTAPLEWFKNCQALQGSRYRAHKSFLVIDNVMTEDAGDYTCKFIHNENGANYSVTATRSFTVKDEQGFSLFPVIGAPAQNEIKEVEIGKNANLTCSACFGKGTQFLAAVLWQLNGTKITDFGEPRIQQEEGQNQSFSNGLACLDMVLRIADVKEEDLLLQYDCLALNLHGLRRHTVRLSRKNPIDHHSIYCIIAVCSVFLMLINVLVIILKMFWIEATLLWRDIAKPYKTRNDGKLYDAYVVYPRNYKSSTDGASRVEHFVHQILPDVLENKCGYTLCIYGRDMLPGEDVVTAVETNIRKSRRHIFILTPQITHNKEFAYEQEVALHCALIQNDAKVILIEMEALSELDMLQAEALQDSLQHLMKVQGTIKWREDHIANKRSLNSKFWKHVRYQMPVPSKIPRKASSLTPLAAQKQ

T3: IL1RL2 over-expressed on Expi293 cells (UniProt Q9HB29 20-575, limits assumed)
T3 construct: whole, on cells; Target of the flow cytometry assay; MFI ratio is over-expressing cells over parent cells
T3 sequence (looked up): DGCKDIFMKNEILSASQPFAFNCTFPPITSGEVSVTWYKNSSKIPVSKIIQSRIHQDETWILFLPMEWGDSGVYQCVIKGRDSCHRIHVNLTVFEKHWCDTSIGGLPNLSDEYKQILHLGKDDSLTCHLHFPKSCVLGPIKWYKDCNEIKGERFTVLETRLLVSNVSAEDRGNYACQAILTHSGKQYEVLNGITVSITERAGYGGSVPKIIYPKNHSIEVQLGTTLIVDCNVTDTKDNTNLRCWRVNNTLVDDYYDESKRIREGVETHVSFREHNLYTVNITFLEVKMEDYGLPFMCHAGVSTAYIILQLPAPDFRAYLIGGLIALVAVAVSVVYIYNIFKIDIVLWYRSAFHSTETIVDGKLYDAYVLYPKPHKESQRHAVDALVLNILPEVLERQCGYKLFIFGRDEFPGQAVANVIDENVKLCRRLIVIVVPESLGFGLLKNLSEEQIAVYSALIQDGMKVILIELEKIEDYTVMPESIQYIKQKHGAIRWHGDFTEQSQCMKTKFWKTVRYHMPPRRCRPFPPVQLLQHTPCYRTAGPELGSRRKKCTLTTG

B1: IL1RL1-91 (Fc fusion, not shown: a dimerising Fc or GST)
VHH: EVQLVESGGGLVQPGGSLRLSCAASGGTFGSYAMGWFRQAPGKEREGVAAIYTGGITTYADSVKGRFTISADNSKNTAYLQMNSLKPEDTAVYYCAAFDGYSGSDWGQGTLVTVSS
B2: IL1RL1-89 (Fc fusion, not shown: a dimerising Fc or GST)
VHH: EVQLVESGGGLVQPGGSLRLSCAASGSIYSLVAMGWFRQAPGKEREAVAGIVSGGSTSYADSVKGRFTISADNSKNTAYLQMNSLKPEDTAVYYCAAVGGATTVTASEWDWGQGTLVTVSS
notes: VHH-Fc on IgG2 Fc
B3: IL1RL1-63 (Fc fusion, not shown: a dimerising Fc or GST)
VHH: EVQLVESGGGLVQPGGSLRLSCAASGRTLSSIYAMGWFRQAPGKEREGVAAIYSGGITTYADSVKGRFTISADNSKNTAYLQMNSLKPEDTAVYYCAAFDGYSGSDWGQGTLVTVSS
B4: IL1RL1-73 (Fc fusion, not shown: a dimerising Fc or GST)
VHH: EVQLVESGGGLVQPGGSLRLSCAASGDISSIVAMGWFRQAPGKEREWVSSIGIAGTPTFYADSVKGRFTISADNSKNTAYLQMNSLKPEDTAVYYCAGRSIGVDDMPYVWGQGTLVTVSS
notes: VHH-Fc on IgG2 Fc
B5: IL1RL1-88 (Fc fusion, not shown: a dimerising Fc or GST)
VHH: EVQLVESGGGLVQPGGSLRLSCAASGRTSHGYGGYGMGWFRQAPGKEREEVAAISSSGSSTVYADSVKGRFTISADNSKNTAYLQMNSLKPEDTAVYYCAAIAYEEGVYRWDWGQGTLVTVSS
notes: VHH-Fc on IgG2 Fc
B6: IL1RL1-78 (Fc fusion, not shown: a dimerising Fc or GST)
VHH: EVQLVESGGGLVQPGGSLRLSCAASGFTLDDYAMGWFRQAPGKEREEVAAISWIIGSTKYADSVKGRFTISADNSKNTAYLQMNSLKPEDTAVYYCAAIVYEEGVYRWDWGQGTLVTVSS
notes: VHH-Fc on IgG2 Fc
B7: IL1RL2-21 (VHH)
VHH: EVQLVESGGGLVQPGGSLRLSCAASGRTFSRYAMGWFRQAPGKEREFVAAINWSGDRTYYADSVKGRFTISADNSKNTAYLQMNSLKPEDTAVYYCAVSQPLNYYTYYDARRYDWGQGTLVTVSS
notes: VHH-Fc based on IgG2 Fc
B8: IL1RL2-36 (VHH)
VHH: B7 VHH with F29Y, S30N, R31S, A33S, N52S, D56E, R57H
notes: VHH-Fc based on IgG2 Fc
B9: IL1RL2-41 (VHH)
VHH: B7 VHH with R27G, I51V, D56A
notes: VHH-Fc based on IgG2 Fc
B10: IL1RL2-43 (VHH)
VHH: B7 VHH with R27G, N52S, D56A, R57N
notes: VHH-Fc based on IgG2 Fc
B11: IL1RL2-37 (VHH)
VHH: B7 VHH with R27G, T28A, R31T, Y32V, N52S, G55R, D56G, Y59F
notes: VHH-Fc based on IgG2 Fc
B12: IL1RL2-16 (VHH)
VHH: EVQLVESGGGLVQPGGSLRLSCAASGSDFSIKAMGWFRQAPGKEREFVADIYTSTTTNYTNYADSVKGRFTISADNSKNTAYLQMNSLKPEDTAVYYCAAIAYEEGVYRWDWGQGTLVTVSS
notes: VHH-Fc based on IgG2 Fc
B13: IL1RL2-14 (VHH)
VHH: EVQLVESGGGLVQPGGSLRLSCAASGFTFSNYWMGWFRQAPGKEREFVATIPWSGAYTEYADSVKGRFTISADNSKNTAYLQMNSLKPEDTAVYYCAAANEYWVYVNPNRYTWGQGTLVTVSS
notes: VHH-Fc based on IgG2 Fc
B14: IL1RL2-49 (VHH)
VHH: B13 VHH with N31T, S54I, Y57H, A98E, V104G, Q115P, S123H
notes: VHH-Fc based on IgG2 Fc
B15: IL1RL2-39 (VHH)
VHH: B13 VHH with F27R, T28A, N31S, Y32T, W33V, T50G, P52G, S54T, G55D
notes: VHH-Fc based on IgG2 Fc
B16: IL1RL2-25 (VHH)
VHH: B13 VHH with F27L, T28P, S30N, Y32V, W33Y, T50A, I51V, P52T
notes: VHH-Fc based on IgG2 Fc
B17: IL1RL2-8 (VHH)
VHH: B13 VHH with F29Y, N31S, Y32N, W33Y, T50G, P52S, S54T, G55D
notes: VHH-Fc based on IgG2 Fc
B18: IL1RL2-4 (VHH)
VHH: EVQLVESGGGLVQPGGSLRLSCAASGFILREYNMGWFRQAPGKEREFVAAISPSAFTEYADSVKGRFTISADNSKNTAYLQMNSLKPEDTAVYYCAAANEYWVYVNPNRYTWGQGTLVTVSS
notes: VHH-Fc based on IgG2 Fc
B19: IL1RL2-54 (VHH)
VHH: B18 VHH with F27R, I28Y, L29F, R30S, E31D
notes: VHH-Fc based on IgG2 Fc
B20: IL1RL2-10 (VHH)
VHH: EVQLVESGGGLVQPGGSLRLSCAASGFTFSNHIMGWFRQAPGKEREWVSGINRDGSTSYADSVKGRFTISADNSKNTAYLQMNSLKPEDTAVYYCAKARQITGWDFDYWGQGTLVTVSS
notes: VHH-Fc based on IgG2 Fc
B21: IL1RL2-3 (VHH)
VHH: EVQLVESGGGLVQPGGSLRLSCAASGRTVSTMGWFRQAPGKEREWVSTITFNGDHTYYADSVKGRFTISADNSKNTAYLQMNSLKPEDTAVYYCAKAYSSSWPYFDYWGQGTLVTVSS
notes: VHH-Fc based on IgG2 Fc
B22: IL1RL2-55 (VHH)
VHH: EVQLVESGGGLVQPGGSLRLSCAASGYTDSNLWMGWFRQAPGKEREFVASIDWSGRSTYYADSVKGRFTISADNSKNTAYLQMNSLKPEDTAVYYCAANGIESYGWGNRHFNWGQGTLVTVSS
notes: VHH-Fc based on IgG2 Fc
B23: IL1RL2-13 (VHH)
VHH: B22 VHH with A49G, S54I, G55P, R56S, S57N, T58I
notes: VHH-Fc based on IgG2 Fc
B24: IL1RL2-19 (VHH)
VHH: B22 VHH with I51V, D52N, R56K, S57D
notes: VHH-Fc based on IgG2 Fc

The first assay addresses T1, IL1RL1. As to the kind of experiment: SPR (Carterra LSA), antibody amine-coupled, 1:1 model.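 Further: HC30M sensor chip at 25 °C in HBS-TE, analyte at rising concentrations in buffer containing 0.5 mg/mL BSA, 5 min association then 15 min dissociation.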
Method: SPR experiments were performed on a Carterra LSA SPR biosensor equipped with a HC30M chip at 25° C. in HBS-TE. Antibodies were diluted to 10 μg/mL and amine-coupled to the sensor chip by EDC/NHS activation, followed by ethanolamine HCl quenching. Increasing concentrations of analyte were flowed over the sensor chip in HBS-TE with 0.5 mg/mL BSA with 5-minute association and 15-minute dissociation. Following each injection cycle the surface was regenerated with 2× 30-second injections of IgG elution buffer (Thermo). Data were analyzed in Carterra's Kinetics Tool software with 1:1 binding model.
For the molecule B1, binding was put at a Kd of 1.85 nM, the koff (commonly the first-order rate constant of dissociation) was determined as 0.000261 s⁻¹ and the kon (commonly the second-order rate constant of association) amounted to 141000 M⁻¹ s⁻¹. Consider B2, for which the Kd – broadly, the concentration at which binding is half-saturated – was 0.781 nM; the koff is 0.000388 s⁻¹; the kon worked out at 496000 M⁻¹ s⁻¹. The corresponding values for B3 are 0.153 nM, 3.16e-05 s⁻¹ and 207000 M⁻¹ s⁻¹. The corresponding values for B4 are 2.06 nM, 0.000362 s⁻¹ and 176000 M⁻¹ s⁻¹. The corresponding values for B5 are 0.529 nM, 0.000104 s⁻¹ and 197000 M⁻¹ s⁻¹.

B6 displayed a Kd of 1.36 nM, a koff of 0.000278 s⁻¹ and a kon of 204000 M⁻¹ s⁻¹.

A further assay addresses T2, IL1RL1 over-expressed on Expi293 cells. The experiment in a line: flow cytometry, 100 nM antibody, over-expressing Expi293 / parent cells. Background: A flow cytometer gives signals particle by particle.
Method: (§1) All incubations and washes were in buffer containing PBS+1% BSA. MFI Ratio is defined by the mean fluorescence intensity (MFI) of the cytokine over-expressing Expi293 cell over the Expi293 parent cell. […] EC50 was calculated in GraphPad Prism.
Regarding B1, the “100 nM FACS (MFI Ratio)” value is 475 MFI ratio. B2: the “100 nM FACS (MFI Ratio)” value is 340 MFI ratio. Still for that read-out and setting: the result for B3 reads 451 MFI ratio; that for B4, 463 MFI ratio. Consider B5, for which the “100 nM FACS (MFI Ratio)” value was determined as 339 MFI ratio. Still for that read-out and setting: as for B6, the figure is 475 MFI ratio.

The target in the next assay is T3, IL1RL2 over-expressed on Expi293 cells. The experiment in a line: flow cytometry, over-expressing Expi293 vs parent cells, 100 nM antibody.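 Further: ratio is mean fluorescence intensity on over-expressing Expi293 cells divided by that measured on parental Expi293 cells.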
Method: as §1
As to B7, the “100 nM FACS (MFI Ratio)” value was determined as 20.9. Still for that read-out and setting: as for B8, the figure is 14. On the same count and under the same terms, the result for B9 reads 5.33; that for B10, 1.62. For B11, the “100 nM FACS (MFI Ratio)” value came to 16.9. With B12, the “100 nM FACS (MFI Ratio)” value was 37.6. The same measure, in the same setting: the result for B13 reads 42.1; that for B14, 190; that for B15, 15.3. For B16, the “100 nM FACS (MFI Ratio)” value is 16.5. B17: the “100 nM FACS (MFI Ratio)” value was 12.8. For B18, the “100 nM FACS (MFI Ratio)” value came out at 15.7. On the same count and under the same terms, as for B19, the figure is 21.1; as for B20, 12.7; as for B21, 1.97.

Turning to B22, the “100 nM FACS (MFI Ratio)” value turned out to be 49.7.

Consider B23, for which the “100 nM FACS (MFI Ratio)” value worked out at 11.3. As to B24, the “100 nM FACS (MFI Ratio)” value came out at 13.8.
